Patent US20220047715A1, “FORCE-DEPENDENT DRUG RELEASE SYSTEM TO ENHANCE SELECTIVE KILLING AND MINIMIZE ADVERSE EFFECTS IN CANCER TREATMENT” (THE JOHNS HOPKINS UNIVERSITY, priority 2018, published 2022)

How the values were obtained:
[1] = cited from earlier work
[2] = tested on: CTLA4-CD80 bond; assay: Micropillar-based measurement for CTLA4-CD80 tension; format: cell-based, human; details: cancer cells on micropillars, FIG. 3b
Protocol: FIG. 3: Micropillar-based measurement for CTLA4-CD80 tension. (a) A cancer cell is cultured on micropillars. The forces transmitted to the CTLA4-CD80 bond bend the micropillars. (b) Cancer cells can generate ˜2-fold higher stress than normal cells. […] (c) Cancer cells generate 4-fold higher stress transmitted to the CTLA4-CD80 bond compared to integrin-fibronectin bond. Scale bar: 5 μm.
To determine which of the two possibilities described above is likely to be true, we measured the forces CTLA4 exerts on the CD80 upon binding in both normal cells and breast cancer cells. Since trans-endocytosis requires high forces to physically remove CD80 from the cell membrane of the APC, followed by internalization, we tested whether cancer cells yield higher forces if trans-endocytosis is the unique mechanism used by cancer cells to achieve immunosuppression. We tested the human breast cancer cells MDA-MB-231 and their normal counterpart MCF10A cells, as well as the mouse breast cancer cells EO771 and their normal counterpart EPH4-EV, all of which express CTLA4 (FIG. 1). […] We also measured the forces transmitted via CTLA4 in Treg cells purified from mouse spleens. […] Moreover, when HEK293 cells, in which endogenous CTLA4 is not detected, were transfected with CTLA4 cDNA, only minimal level of forces and no trans-endocytosis of CD80 could be recorded (FIG. 2 panel c).

Compound | patients experiencing skin lesions, colitis, hepatitis, hypophysitis, thyroiditis and other immune-related events ([1]; Ipilimumab alone, 81 reports, 1265 patients, 22 clinical trials) [%] | patients experiencing adverse events ([1]; one study) [%] | force generation transmitted through the CTLA4-CD80 bond [2]
Ipilimumab | 72 | 85 | –
Cc1ccc2c(c1)C(=O)C1(O)CCN(c3ccccc3)C1=N2 (stereo not drawn) [Blebbistatin] | – | – | does not inhibit
